Key:
[1] = target: T1, human Nrf2 fragment (residues 452–560) (human, UniProt Q16236 452-560); assay: crystal structure; Nrf2, MafG and DNA (CsMBE1 or CsMBE2) mixed at a molar ratio of 1:1:1, 10 mg/ml in 33 mM DTT; two Nrf2–MafG–DNA complexes in the asymmetric unit; conditions: both partners purified
T1 construct: His6 tag removed with HRV 3C protease; also called NFE2L2; Nuclear factor erythroid 2-like factor; source: E. coli BL21 (DE3), purified (phosphocellulose P11, HisTrap HP, HiTrap SP, Superdex 75); not shown: His6, N-terminal, cleaved
T1 sequence (looked up): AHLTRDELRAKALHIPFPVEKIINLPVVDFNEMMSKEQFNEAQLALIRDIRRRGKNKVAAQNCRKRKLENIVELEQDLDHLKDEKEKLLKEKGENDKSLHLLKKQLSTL

[2] = target: the molecule itself; assay: native gel or EMSA; EMSA to determine KD for DNA: dimers mixed with 32P-end labeled CsMBE DNA probe (about 1.6 pM) in 20 mM Tris–HCl pH 7.2, 150 mM KCl, 10 mM DTT, BSA, Tween 20, Poly(dI-dC), Ficol; 30 min (Jun–Fos) or 16 h (Nrf2–MafG, MafG homodimer); Nrf2 and MafG mixed at 3:1; complexes seen on DNA
[3] = target: T2, longer human Nrf2 fragment (residues 182–560) (human, UniProt Q16236 182-560); assay: as above; conditions: both partners purified
T2 construct: human Nrf2 (NFE2L2), residues 182-560; Used for EMSA; also called Nrf2 (182–560); wild-type Nrf2; not shown: His6, N-terminal, kept
T2 sequence (looked up): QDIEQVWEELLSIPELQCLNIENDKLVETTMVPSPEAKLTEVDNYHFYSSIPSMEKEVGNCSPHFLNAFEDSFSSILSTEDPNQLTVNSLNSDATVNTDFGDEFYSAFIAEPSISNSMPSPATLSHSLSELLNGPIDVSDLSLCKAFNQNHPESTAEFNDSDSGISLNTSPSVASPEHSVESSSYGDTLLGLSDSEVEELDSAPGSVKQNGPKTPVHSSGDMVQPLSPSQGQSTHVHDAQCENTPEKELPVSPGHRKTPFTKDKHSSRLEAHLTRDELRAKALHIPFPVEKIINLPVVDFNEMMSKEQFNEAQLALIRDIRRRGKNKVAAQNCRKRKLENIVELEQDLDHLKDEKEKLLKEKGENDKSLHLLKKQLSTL

[4] = target: T3, human c-Fos fragment (residues 111–207) (human, UniProt P01100 111-207); assay: as above; conditions: both partners purified
T3 construct: human c-Fos, residues 111-207; The tag is cleavable with HRV 3C protease, but no removal is described; source: E. coli BL21(DE3)-RIL, precipitate solubilized in 6 M guanidine-HCl, purified (HisTrap HP), dialyzed
T3 sequence (P01100 111-207): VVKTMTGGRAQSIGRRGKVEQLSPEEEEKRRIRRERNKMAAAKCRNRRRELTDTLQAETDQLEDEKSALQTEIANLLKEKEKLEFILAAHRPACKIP

[5] = target: T4, Nrf2 long fragment, wild type;MafG (EMSA construct) (Homo sapiens;Homo sapiens, UniProt Q16236;O15525 ;, |); assay: EMSA; Nrf2:MafG 3:1; MafG concentration taken as heterodimer; 16 h; EMSA: 20 mM Tris-HCl pH 7.2, 150 mM KCl, 10 mM DTT, 8 mg/ml BSA, 0.005% Tween 20, 50 ng/ml poly(dI-dC), 2.5% Ficoll; probe ~1.6 pM; 16 h (30 min for Jun-Fos); competitive assay at 4 C; gel at 4 C; conditions: protein: recombinant;recombinant; tags: N-terminal His6 (not removed);N-terminal His6, removed by HRV 3C (GPHM left); copies: 1;1; label: 32P 5' end; text says 30 bp)
[6] = target: T4, Nrf2 long fragment, wild type;MafG …; assay: EMSA (competitive, vs MafG homodimer); EC50 of Nrf2 at 1 nM MafG; 4 C, 16 h; EMSA: 20 mM Tris-HCl pH 7.2, 150 mM KCl, 10 mM DTT, 8 mg/ml BSA, 0.005% Tween 20, 50 ng/ml poly(dI-dC), 2.5% Ficoll; probe ~1.6 pM; 16 h (30 min for Jun-Fos); competitive assay at 4 C; gel at 4 C; conditions: protein: recombinant;recombinant; tags: N-terminal His6 (not removed);N-terminal His6, removed by HRV 3C (GPHM left); copies: 1;1; label: 32P 5' end; text says 30 bp)
[7] = target: c-Jun fragment;c-Fos fragment (Homo sapiens;Homo sapiens, UniProt P05412;P01100 ;, |); assay: EMSA; heterodimer; 30 min; EMSA: 20 mM Tris-HCl pH 7.2, 150 mM KCl, 10 mM DTT, 8 mg/ml BSA, 0.005% Tween 20, 50 ng/ml poly(dI-dC), 2.5% Ficoll; probe ~1.6 pM; 16 h (30 min for Jun-Fos); competitive assay at 4 C; gel at 4 C; conditions: protein: recombinant;recombinant; tags: N-terminal His6;N-terminal His6; copies: 1;1; label: 32P 5' end; text says 30 bp)
Sequence of c-Jun fragment;c-Fos fragment (P05412 other isoform, or with tags, fused parts or gaps |, chain 1 of 2): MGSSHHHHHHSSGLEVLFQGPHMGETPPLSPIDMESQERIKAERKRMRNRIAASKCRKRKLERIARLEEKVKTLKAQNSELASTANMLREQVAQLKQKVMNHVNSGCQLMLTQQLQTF
Sequence of c-Jun fragment;c-Fos fragment (P01100 other isoform, or with tags, fused parts or gaps |, chain 2 of 2): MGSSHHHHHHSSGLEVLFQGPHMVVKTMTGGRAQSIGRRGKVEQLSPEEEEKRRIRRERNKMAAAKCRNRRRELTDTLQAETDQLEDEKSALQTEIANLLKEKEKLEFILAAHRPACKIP

[8] = target: MafG (EMSA construct) (Homo sapiens, UniProt O15525); assay: EMSA; homodimer; 16 h; EMSA: 20 mM Tris-HCl pH 7.2, 150 mM KCl, 10 mM DTT, 8 mg/ml BSA, 0.005% Tween 20, 50 ng/ml poly(dI-dC), 2.5% Ficoll; probe ~1.6 pM; 16 h (30 min for Jun-Fos); competitive assay at 4 C; gel at 4 C; conditions: protein: recombinant; tags: N-terminal His6, removed by HRV 3C (GPHM left); chain copies: 2; label: 32P 5' end; text says 30 bp)
[9] = target: T5, Nrf2 DNA-binding domain (CNC-bZIP);MafG (crystal construct) (Homo sapiens;Homo sapiens, UniProt Q16236;O15525 ;, |); assay: X-ray crystallography; 2.3 A; EMSA: 20 mM Tris-HCl pH 7.2, 150 mM KCl, 10 mM DTT, 8 mg/ml BSA, 0.005% Tween 20, 50 ng/ml poly(dI-dC), 2.5% Ficoll; probe ~1.6 pM; 16 h (30 min for Jun-Fos); competitive assay at 4 C; gel at 4 C; conditions: protein: recombinant;recombinant; tags: N-terminal His6, removed by HRV 3C (GPHM left);none; copies: 1;1; 1-nt 5' overhang on each strand (15 bp)
[10] = target: T5, Nrf2 DNA-binding domain (CNC-bZIP);MafG …; assay: X-ray crystallography; 2.6 A; EMSA: 20 mM Tris-HCl pH 7.2, 150 mM KCl, 10 mM DTT, 8 mg/ml BSA, 0.005% Tween 20, 50 ng/ml poly(dI-dC), 2.5% Ficoll; probe ~1.6 pM; 16 h (30 min for Jun-Fos); competitive assay at 4 C; gel at 4 C; conditions: protein: recombinant;recombinant; tags: N-terminal His6, removed by HRV 3C (GPHM left);none; copies: 1;1; 1-nt 5' overhang on each strand (15 bp)

B1: human MafG (residues 21–123, without any tag) (domain or fragment, UniProt O15525 21-123, looked up)
chain: GTSLTDEELVTMSVRELNQHLRGLSKEEIVQLKQRRRTLKNRGYAASCRVKRVTQKEELEKQKAELQQEVEKLASENASMKLELDALRSKYEALQTFARTVAR
notes: human MafG, residues 21-123: EHR, basic region and leucine zipper; Construct used for crystallization; source: E. coli BL21 (DE3), pAR2156-MafG, plating method, purified (HiTrap Heparin, Superdex 75)
B1: binds [1].

B2: human MafG fragment (residues 21–123), His6 tag removed (domain or fragment, UniProt O15525 21-123, looked up)
chain: GTSLTDEELVTMSVRELNQHLRGLSKEEIVQLKQRRRTLKNRGYAASCRVKRVTQKEELEKQKAELQQEVEKLASENASMKLELDALRSKYEALQTFARTVAR
notes: human MafG, residues 21-123; Construct used for EMSA; also called MafG (21–123); source: E. coli BL21(DE3)-RIL, purified (phosphocellulose P11, HisTrap HP, Superdex 75); not shown: His6, N-terminal, cleaved
B2: binds [2]; binds [3].

B3: human c-Jun fragment (residues 237–331) (domain or fragment, UniProt P05412 237-331, looked up)
chain: GETPPLSPIDMESQERIKAERKRMRNRIAASKCRKRKLERIARLEEKVKTLKAQNSELASTANMLREQVAQLKQKVMNHVNSGCQLMLTQQLQTF
notes: human c-Jun, residues 237-331; source: E. coli, expressed and purified similarly to the c-Fos fragment
B3: binds [4].

B4: EMSA CsMBE probe (dsDNA)
DNA 1: CCGCAGTCACAGTGACTCAGCAGAATCTGA
DNA 2: CTCAGATTCTGCTGAGTCACTGTGACTGCG
For B4, the Kd [5] was 0.53 nM, the “apparent K (half saturation)” value [6] was 2.1 nM and the Kd [7] was 129 nM. It also gave a Kd [8] of 0.69 nM.

B5: CsMBE1 (dsDNA)
DNA 1: CATGATGAGTCAGCAA
DNA 2: GTTGCTGACTCATCAT
B5: binds [9].

B6: CsMBE2 (dsDNA)
DNA 1: CACAGTGACTCAGCAG
DNA 2: GCTGCTGAGTCACTGT
B6: binds [10].
